# What was measured:
# [1] = target: T1, SARS-CoV-2 omicron variant B.1.1.529 Spike ectodomain (tri-S, HexaPro) (SARS-CoV-2), P0DTC2; conditions: remark: other sources report otherwise
# [2] = target: SARS-CoV-2 omicron variant B.1.1.529 RBD domain (SARS-CoV-2); test: ELISA; unit from paragraph 452, none printed in the heatmap; conditions: remark: other sources report otherwise
# [3] = target: T1, SARS-CoV-2 omicron variant B.1.1.529 …; test: as above; conditions: remark: other sources report otherwise
# [4] = target: SARS-CoV-2 kappa variant B.1.617.1/3 RBD domain (SARS-CoV-2); test: ELISA; conditions: remark: other sources report otherwise
# [5] = target: SARS-CoV-2 delta variant B.1.617.2/3 RBD domain (SARS-CoV-2); test: ELISA; conditions: remark: other sources report otherwise
# [6] = target: SARS-CoV-2 delta plus variant RBD (SARS-CoV-2); test: ELISA; conditions: remark: other sources report otherwise
# [7] = target: γ (SARS-CoV-2); test: flow cytometry (Mock 2.5)
# [8] = target: κ (SARS-CoV-2); test: flow cytometry (Mock 2.5)
# [9] = target: ε (SARS-CoV-2); test: flow cytometry (Mock 2.5)
# [10] = target: SARS-CoV-2 δ variant spike protein, cell-expressed (SARS-CoV-2); test: flow cytometry (Mock 2.5)
# [11] = target: ι (SARS-CoV-2); test: flow cytometry (Mock 2.5)
# [12] = target: α (SARS-CoV-2); test: flow cytometry (Mock 2.5)
# [13] = target: β (SARS-CoV-2); test: flow cytometry (Mock 2.5)
Binder,IC50 [1] [µg/mL],EC50 [2] [µg/mL],EC50 [3] [ng/mL],OD405nm [4],OD405nm [5],OD405nm [6],log10 ΔgMFI [7],log10 ΔgMFI [8],log10 ΔgMFI [9],log10 ΔgMFI [10],log10 ΔgMFI [11],log10 ΔgMFI [12],log10 ΔgMFI [13]
"Adintrevimab (antibody, V domains shown) VH: EVQLVESGGGLVKPGGSLRLSCAASGFTFSSYYMNWVRQAPGKGLEWVSSISEDGYSTYYPDSLKGRFTISRDSAKNSLYLQMNSLRADDTAVYYCARDFSGHTAWAGTGFEYWGQGTLVTVSS VL: QSVLTQPPSVSGAPGQRITISCTGSSSNIGAGYDVHWYQQLPGTAPKLLIYGSSSRNSGVPDRFSGSKSGTSASLAITGLQAEDEADYYCQSYDSSLSVLYTFGTGTKVTVL",> 2,0.056,9,3.6,3.4,3.4,–,–,–,–,–,–,–
"Imdevimab (antibody, V domains shown) VH: QVQLVESGGGVVQPGRSLRLSCAASGFTFSNYAMYWVRQAPGKGLEWVAVISYDGSNKYYADSVKGRFTISRDNSKNTLYLQMNSLRTEDTAVYYCASGSDYGDYLLVYWGQGTLVTVSS VL: QSALTQPASVSGSPGQSITISCTGTSSDVGGYNYVSWYQQHPGKAPKLMIYDVSKRPSGVSNRFSGSKSGNTASLTISGLQSEDEADYYCNSLTSISTWVFGGGTKLTVL",–,–,–,–,–,–,4.6,4.7,4.5,4.5,4.9,4.4,3.9

# From patent publication US20240336672A1
